Test [1] addresses T1, human BCMA expressed on cells (NCI-H929, U266, JJN3, 293:BCMA) (human, UniProt Q02223 1-184).
T1 construct: Endogenous BCMA on myeloma lines or full-length BCMA clone in HEK 293 cells; also called B-cell maturation antigen; CD269
T1 sequence: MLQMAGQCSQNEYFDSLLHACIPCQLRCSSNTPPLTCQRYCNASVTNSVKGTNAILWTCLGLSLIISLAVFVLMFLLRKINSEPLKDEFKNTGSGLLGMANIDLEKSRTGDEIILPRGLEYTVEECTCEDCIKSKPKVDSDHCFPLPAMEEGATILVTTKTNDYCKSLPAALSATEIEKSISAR
Kind of test: binding to JJN3 cells.

Test [2] addresses T1, human BCMA expressed on cells …. In words: binding to U266 cells.
Test [3] concerns the target T2, FcγRIIIa (hCD16) on transfected CHO cells (human, UniProt P08637 17-254).
T2 construct: whole, on cells; Also expressed on Jurkat effector cells in the signalling assay; also called human FcRIIIa
In words: competition with labelled h00 on CHO cells with FcγRIIIa.

Consider two molecules from patent US20190194338A1 (Seagen, published 2019).

T2 sequence (P08637 17-254): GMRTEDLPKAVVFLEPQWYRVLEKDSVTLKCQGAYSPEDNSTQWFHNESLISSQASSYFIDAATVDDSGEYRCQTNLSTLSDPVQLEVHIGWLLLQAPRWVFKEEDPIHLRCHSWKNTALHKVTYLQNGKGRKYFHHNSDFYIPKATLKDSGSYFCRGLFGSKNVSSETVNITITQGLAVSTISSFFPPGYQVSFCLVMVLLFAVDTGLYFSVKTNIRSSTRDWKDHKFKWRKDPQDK

B1: cSG16.17 wild-type (antibody)
heavy: not shown
light: DIQMTQSPASLSASLGETVSIECLASEDISDDLAWYQQKSGKSPQVLVYTTSRLQDGVPSRFSGSGSGTRFSLKIIVMQPEDEADYFCQQTYKFPPTFGAGTRLDLKR
notes: domain: wild-type human IgG1 heavy chain constant domains; Rat VH and VL fused to human IgG1 and kappa constants; also called chimeric SG16.17; cSG16.17 G1 WT; not shown: human kappa light chain constant domain
For the molecule B1, the dissociation constant Kd – broadly, the free concentration of one partner at which half of the binding sites on the other are occupied at equilibrium, for simple one-to-one binding – was ~15 nM in test [1] and ~10 nM in test [2]. Besides, the binding result in test [3] is listed as “binds”.

B2: cSG16.17 mutant (antibody, name in EU numbering)
heavy: QVNLLQSRAALVKPGASVKLSCEASGYTFTDYYIHWVKQSHGKSLEWIGYINPNSGYTKYNENFKTKATMTADKSTNTAYVELSRLTSEDSATYFCTRYMWERVTGFFDFWGPGTKVTVSSASTKGPSVFPLAPSSKSTSGGTAALGCLVKDYFPEPVTVSWNSGALTSGVHTFPAVLQSSGLYSLSSVVTVPSSSLGTQTYICNVNHKPSNTKVDKKVEPKSCDKTHTCPPCPAPELLGGPDVFLFPPKPKDTLMISRTPEVTCVVVDVSHEDPEVKFNWYVDGVEVHNAKTKPREEQYNSTYRVVSVLTVLHQDWLNGKEYKCKVSNKALPLPEEKTISKAKGQPREPQVYTLPPSRDELTKNQVSLTCLVKGFYPSDIAVEWESNGQPENNYKTTPPVLDSDGSFFLYSKLTVDKSRWQQGNVFSCSVMHEALHNHYTQKSLSLSPGK
light: B1 light
notes: domain: human IgG1 heavy chain constant domains; Positions of the Fc mutations are EU numbers, not positions on the UniProt entry; also called cSG16.17 S239D:A330L:I332E; chimeric SG16.17 IgG1 S239D, A330L, I332E; not shown: human kappa light chain constant domain
As to B2, in test [3], the binding result was “binds”.
